In US20230060095A1 (Regeneron, published 2023):

Columns and labels:
[1] = biological target: T1, PRAME peptide on HLA-A*02:01 (human); experiment: multimer staining
T1 peptide: RLDQLLRHV

[2] = biological target: T2, soluble HLA-A2:PRAME (312-320) tetramer (human); experiment: flow cytometry, soluble pMHC tetramer on CHO cells expressing the TCR
T2 construct: Commercial tetramer (MBL International); construct limits, biotin tag and streptavidin/fluorophore not described; also called PRAME/HLA tetramer reagent

B1: PN46889 (TCR, V domains shown)
V domain 1: QKEVEQNSGPLSVPEGAIASLNCTYSDRGSQSFFWYRQYSGKSPELIMSIYSNGDKEDGRFTAQLNKASQYVSLLIRDSQPSDSATYLCAVNIPNSGYSTLTFGKGTMLLVSP
V domain 2: NAGVTQTPKFRVLKTGQSMTLLCAQDMNHEYMYWYRQDPGMGLRLIHYSVGEGTTAKGEVPDGYNVSRLKKQNFLLGLESAAPSQTSVYFCASSYWEGTEAFFGQGTRLTVV
notes: stained with anti-mouse TCR constant region antibody H57-597) and full-length chains were expressed on CHO cells
**Q.** Which results are given for B1?
**A.** binding result [1]: recognises; Cell Frequency ≥1000 MFI, ≥1% (% tetramer positive cells in the Ag+ gate) [2]: 92.5%

B2: PN46733 (TCR, V domains shown)
V domain 1: GESVGLHLPTLSVQEGDNSIINCAYSNSASDYFIWYKQESGKGPQFIIDIRSNMDKRQGQRVTVLLNKTVKHLSLQIAATQPGDSAVYFCAENNYGQNFVFGPGTRLSVLP
V domain 2: NAGVTQTPKFQVLKTGQSMTLQCAQDMNHNSMYWYRQDPGMGLRLIYYSASEGTTDKGEVPNGYNVSRLNKREFSLRLESAAPSQTSVYFCASSDWGQGVEAFFGQGTRLTVV
notes: as for B1
**Q.** Does B2 bind [1]?
**A.** recognises

**Q.** What about the “Cell Frequency ≥1000 MFI, ≥1% (% tetramer positive cells in the Ag+ gate)” value [2] of the same binder?
**A.** 87.9%

B3: PN46723 (TCR, V domains shown)
V domain 1: EDQVTQSPEALRLQEGESSSLNCSYTVSGLRGLFWYRQDPGKGPEFLFTLYSAGEEKEKERLKATLTKKESFLHITAPKPEDSATYLCAVQEDGGSQGNLIFGKGTKLSVKP
V domain 2: DAGVTQSPTHLIKTRGQQVTLRCSPISGHKSVSWYQQVLGQGPQFIFQYYEKEERGRGNFPDRFSARQFPNYSSELNVNALLLGDSALYLCASSRDINEKLFFGSGTQLSVL
notes: as for B1
**Q.** Does B3 bind [1]?
**A.** recognises

**Q.** What about the “Cell Frequency ≥1000 MFI, ≥1% (% tetramer positive cells in the Ag+ gate)” value [2] of the same binder?
**A.** 72.5%

B4: PN46714 (TCR, V domains shown)
V domain 1: EDQVTQSPEALRLQEGESSSLNCSYTVSGLRGLFWYRQDPGKGPEFLFTLYSAGEEKEKERLKATLTKKESFLHITAPKPEDSATYLCAVQADGGSQGNLIFGKGTKLSVKP
V domain 2: DAGVTQSPTHLIKTRGQQVTLRCSPISGHKSVSWYQQVLGQGPQFIFQYYEKEERGRGNFPDRFSARQFPNYSSELNVNALLLGDSALYLCASSLDINSPLHFGNGTRLTVT
notes: as for B1
**Q.** Does B4 bind [1]?
**A.** recognises

**Q.** What about the “Cell Frequency ≥1000 MFI, ≥1% (% tetramer positive cells in the Ag+ gate)” value [2] of the same binder?
**A.** 62.1%

B5: PN46735 (TCR, V domains shown)
V domain 1: DAKTTQPNSMESNEEEPVHLPCNHSTISGTDYIHWYRQLPSQGPEYVIHGLTSNVNNRMASLAIAEDRKSSTLILHRATLRDAAVYYCILREYMYSGGGADGLTFGKGTHLIIQP
V domain 2: DAGVTQSPTHLIKTRGQQVTLRCSPISGHKSVSWYQQVLGQGPQFIFQYYEKEERGRGNFPDRFSARQFPNYSSELNVNALLLGDSALYLCASSFQAGVNYGYTFGSGTRLTVV
notes: as for B1
**Q.** Does B5 bind [1]?
**A.** recognises

**Q.** What about the “Cell Frequency ≥1000 MFI, ≥1% (% tetramer positive cells in the Ag+ gate)” value [2] of the same binder?
**A.** 17.9%

B6: PN46678 (TCR, V domains shown)
V domain 1: AQKVTQAQPEISVVEKEDVTLDCVYETRDTTYYLFWYKQPPSGELVFLIRRNSFDEQNEISGRYSWNFQKSTSSFNFTITASQVVDSAVYFCALSEFDRGSTLGRLYFGRGTQLTVWP
V domain 2: DAGVTQSPTHLIKTRGQQVTLRCSPISGHKSVSWYQQVLGQGPQFIFQYYEKEERGRGNFPDRFSARQFPNYSSELNVNALLLGDSALYLCASSRDINEKLFFGSGTQLSVL
notes: as for B1
**Q.** Does B6 bind [1]?
**A.** recognises

**Q.** And the “Cell Frequency ≥1000 MFI, ≥1% (% tetramer positive cells in the Ag+ gate)” value [2]?
**A.** 11%

B7: PN46914 (TCR, V domains shown)
V domain 1: AQKVTQAQPEISVVEKEDVTLDCVYETRDTTYYLFWYKQPPSGELVFLIRRNSFDEQNEISGRYSWNFQKSTSSFNFTITASQVVDSAVYFCALSEGYNQGGKLIFGQGTELSVKP
V domain 2: DVKVTQSSRYLVKRTGEKVFLECVQDMDHENMFWYRQDPGLGLRLIYFSYDVKMKEKGDIPEGYSVSREKKERFSLILESASTNQTSMYLCASGADSNQPQHFGDGTRLSIL
notes: as for B1
**Q.** Does B7 bind [1]?
**A.** recognises

**Q.** And the “Cell Frequency ≥1000 MFI, ≥1% (% tetramer positive cells in the Ag+ gate)” value [2]?
**A.** 11.5%
